Source: patent US20250051455A1

What was measured:
[1] = biological target: recombinant soluble human HLA-G β2M MHC class I complex, monomer (human); test: SPR, reference antibody against monomeric wt HLA-G
[2] = biological target: modified human HLA-G β2M MHC class I complex (HLA-G specific amino acids replaced by HLA-A consensus amino acids) (human); test: SPR, reference antibody against degrafted HLA-G
[3] = biological target: recombinant soluble human HLA-G β2M MHC class I complex, dimer (human); test: competition ELISA, one antibody concentration; competitor coated ILT4-Fc
[4] = biological target: recombinant soluble human HLA-G β2M MHC class I complex, monomer (human); test: as above
[5] = biological target: recombinant soluble human HLA-G β2M MHC class I complex, trimer (human); test: as above
[6] = biological target: recombinant soluble human HLA-G β2M MHC class I complex, dimer (human); test: competition ELISA, one antibody concentration; competitor coated ILT2-Fc
[7] = biological target: recombinant soluble human HLA-G β2M MHC class I complex, monomer (human); test: as above
[8] = biological target: recombinant soluble human HLA-G β2M MHC class I complex, trimer (human); test: as above
[9] = biological target: human HLA-G expressed on cells (JEG3 natural; SKOV3 HLA-G+ and PA-TU-8902 HLA-G+ transfectants) (human) (UniProt P17693); test: flow cytometry, JEG3 cells pre-incubated with antibody (40 µg/ml final); competitor ILT2-Fc chimera

Kd [1] [nM] | koff [1] [s⁻¹] | kon [1] [M⁻¹ s⁻¹] | t 1/2 [1] [min] | Kd [2] [nM] | koff [2] [s⁻¹] | kon [2] [M⁻¹ s⁻¹] | t 1/2 [2] [min] | % inhibition of ILT4 binding [3] [%] | % inhibition of ILT4 binding [4] [%] | % inhibition of ILT4 binding [5] [%] | % inhibition of ILT2 binding [6] [%] | % inhibition of ILT2 binding [7] [%] | % inhibition of ILT2 binding [8] [%] | Inhibition of ILT2 binding to Jeg3 cells [9] [%] | Substance
12 | 0.00085 | 74000 | 14 | 13 | 0.0012 | 89000 | 10 | – | – | – | – | – | – | – | MEM-G/11 (antibody)
20 | 0.0037 | 180000 | 3 | – | – | – | – | -20 | -898 | 58 | -132 | 12 | 3 | -55.8 | G233 (antibody)
7.7 | 0.0011 | 150000 | 10 | 300 | 0.036 | 120000 | 0.3 | -44 | -14 | -40 | 1 | -442 | 4 | -27.9 | MEM/G9 (antibody)
